Experimental data reported in patent publication US20120034160A1 (AbbVie / Abbott, published 2012).
Changes are numbered by the printed parent chain. One block for each binder: values may come before it.

Key:
Recombinant Human IL-1β [1] = target: T1, Recombinant Human IL-1β (human, UniProt P01584 117-269); experiment: cell-based or functional assay
Recombinant Human IL-17 [2] = target: T2, Recombinant Human IL-17 (human, UniProt Q16552 20-155, limits assumed); experiment: cell-based or functional assay
T2 sequence (looked up): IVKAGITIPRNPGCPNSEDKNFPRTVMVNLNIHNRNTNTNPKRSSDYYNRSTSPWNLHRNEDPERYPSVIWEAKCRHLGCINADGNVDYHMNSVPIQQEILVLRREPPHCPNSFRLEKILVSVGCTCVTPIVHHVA

Recombinant Human IL-1β [3] = target: T1, Recombinant Human IL-1β; experiment: Biacore SPR; C-terminal VD
Outline: (§1)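 First, goat anti-mouse IgG was immobilized on a CM5 chip by amine coupling. Next, test antibody or DVD-Ig (25 μg/ml) was captured. Then antigen at 10−200 nM flowed over at 25 μl/min, 25° C. Finally, association and dissociation phases were globally fitted to a 1:1 model.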

Recombinant Human IL-17 [4] = target: T2, Recombinant Human IL-17; experiment: Biacore SPR; N-terminal VD
Outline: as §1

Recombinant Human IL-17 [5] = target: T2, Recombinant Human IL-17; experiment: Biacore SPR; C-terminal VD
Outline: as §1

Recombinant Human IL-1β [6] = target: T1, Recombinant Human IL-1β; experiment: Biacore SPR; N-terminal VD
Outline: as §1

B1: DVD1640 (bispecific antibody, human IgG1, kappa)
heavy: not shown
light: EIVLTQSPDFQSVTPKEKVTITCRASQNIGSELHWYQQKPDQSPKLLIKYASHSISGVPSRFSGSGSGTDFTLTINGLEAEDAATYYCHQSDTLPHTFGQGTKVDIKRTVAAPDIQMTQSPSSLSASVGDRVTITCRASGNIHNYLTWYQQTPGKAPKLLIYNAKTLADGVPSRFSGSGSGTDYTFTISSLQPEDIATYYCQHFWSIPYTFGQGTKLQITRTVAAPSVFIFPPSDEQLKSGTASVVCLLNNFYPREAKVQWKVDNALQSGNSQESVTEQDSKDSTYSLSSTLTLSKADYEKHKVYACEVTHQGLSSPVTKSFNRGEC
notes: V1/V2 vectors: wild type hIgG1, kappa
C-Terminal VD IL-1β Neutralization Assay EC50 (Recombinant Human IL-1β [1]): 2.85 nM
N-terminal VD IL-17 Neutralization Assay EC50 (Recombinant Human IL-17 [2]): 0.0061 nM
Kd (Recombinant Human IL-1β [3]): 0.09 nM
koff (Recombinant Human IL-1β [3]): 1.2e-05 s⁻¹
kon (Recombinant Human IL-1β [3]): 130000 M⁻¹ s⁻¹
Kd (Recombinant Human IL-17 [4]): 0.017 nM
koff (Recombinant Human IL-17 [4]): 6.5e-05 s⁻¹
kon (Recombinant Human IL-17 [4]): 3.8e+06 M⁻¹ s⁻¹

B3: DVD1637 (bispecific antibody, human IgG1, kappa)
heavy: not shown
light: ETTVTQSPSSLSASVGDRVTITCITSTDIDVDMNWYQQKPGKPPKLLISQGNTLRPGVPSRFSSSGSGTDFTFTISSLQPEDFATYYCLQSDNLPLTFGQGTKLEIKRTVAAPEIVLTQSPDFQSVTPKEKVTITCRASQDIGSELHWYQQKPDQPPKLLIKYASHSTSGVPSRFSGSGSGTDFTLTINGLEAEDAGTYYCHQTDSLPYTFGPGTKVDIKRTVAAPSVFIFPPSDEQLKSGTASVVCLLNNFYPREAKVQWKVDNALQSGNSQESVTEQDSKDSTYSLSSTLTLSKADYEKHKVYACEVTHQGLSSPVTKSFNRGEC
notes: DVD-Ig: outer AB272, inner AB274; V1/V2 vectors: wild type hIgG1, kappa
N-Terminal VD IL-1β Neutralization Assay EC50 (Recombinant Human IL-1β [1]): 0.552 nM
C-terminal VD IL-17 Neutralization Assay EC50 (Recombinant Human IL-17 [2]): 0.0271 nM
Kd (Recombinant Human IL-17 [5]): ≤ 0.0025 nM
koff (Recombinant Human IL-17 [5]): < 1e-06 s⁻¹
kon (Recombinant Human IL-17 [5]): 230000 M⁻¹ s⁻¹
Kd (Recombinant Human IL-1β [6]): 0.075 nM
koff (Recombinant Human IL-1β [6]): 0.00059 s⁻¹
kon (Recombinant Human IL-1β [6]): 7.9e+06 M⁻¹ s⁻¹

B6: DVD1636 (bispecific antibody, human IgG1, kappa)
heavy: not shown
light: EIVLTQSPDFQSVTPKEKVTITCRASQDIGSELHWYQQKPDQPPKLLIKYASHSTSGVPSRFSGSGSGTDFTLTINGLEAEDAGTYYCHQTDSLPYTFGPGTKVDIKRTVAAPDTVVTQSPAFLSVTPGEKVTITCITSTDIDVDMNWYQQKPDQPPKLLISQGNTLRPGVPSRFSSSGSGTDFTFTISSLEAEDAATYYCLQSDNLPLTFGQGTKLEIKRTVAAPSVFIFPPSDEQLKSGTASVVCLLNNFYPREAKVQWKVDNALQSGNSQESVTEQDSKDSTYSLSSTLTLSKADYEKHKVYACEVTHQGLSSPVTKSFNRGEC
notes: DVD-Ig: outer AB274, inner AB271; V1/V2 vectors: wild type hIgG1, kappa
C-Terminal VD IL-1β Neutralization Assay EC50 (Recombinant Human IL-1β [1]): 27.1 nM
N-terminal VD IL-17 Neutralization Assay EC50 (Recombinant Human IL-17 [2]): 0.0075 nM
Kd (Recombinant Human IL-1β [3]): 0.6 nM
koff (Recombinant Human IL-1β [3]): 0.00063 s⁻¹
kon (Recombinant Human IL-1β [3]): 1e+06 M⁻¹ s⁻¹
Kd (Recombinant Human IL-17 [4]): 0.0046 nM
koff (Recombinant Human IL-17 [4]): 1.9e-05 s⁻¹
kon (Recombinant Human IL-17 [4]): 4.1e+06 M⁻¹ s⁻¹

More lines, now with the values ahead:

C-Terminal VD IL-1β Neutralization Assay EC50 (Recombinant Human IL-1β [1]): 0.628 nM
N-terminal VD IL-17 Neutralization Assay EC50 (Recombinant Human IL-17 [2]): 0.0043 nM
Kd (Recombinant Human IL-1β [3]): < 0.001 nM
koff (Recombinant Human IL-1β [3]): < 1e-06 s⁻¹
kon (Recombinant Human IL-1β [3]): 960000 M⁻¹ s⁻¹
Kd (Recombinant Human IL-17 [4]): 0.011 nM
koff (Recombinant Human IL-17 [4]): 4.1e-05 s⁻¹
kon (Recombinant Human IL-17 [4]): 3.9e+06 M⁻¹ s⁻¹
B2: DVD1642 (bispecific antibody, human IgG1, kappa)
heavy: not shown
light: B1 light
notes: as for B1

N-Terminal VD IL-1β Neutralization Assay EC50 (Recombinant Human IL-1β [1]): 0.465 nM
C-terminal VD IL-17 Neutralization Assay EC50 (Recombinant Human IL-17 [2]): 0.121 nM
Kd (Recombinant Human IL-17 [5]): 0.52 nM
koff (Recombinant Human IL-17 [5]): 9.4e-05 s⁻¹
kon (Recombinant Human IL-17 [5]): 180000 M⁻¹ s⁻¹
Kd (Recombinant Human IL-1β [6]): 0.074 nM
koff (Recombinant Human IL-1β [6]): 0.00048 s⁻¹
kon (Recombinant Human IL-1β [6]): 6.5e+06 M⁻¹ s⁻¹
B4: DVD1643 (bispecific antibody, human IgG1, kappa)
heavy: not shown
light: B3 light with E1D, T3Q, D141N, P156S, T168I, G197A, T204S, S206T, Y209H, P213Q
notes: DVD-Ig: outer AB270, inner AB275; V1/V2 vectors: wild type hIgG1, kappa

N-Terminal VD IL-1β Neutralization Assay EC50 (Recombinant Human IL-1β [1]): 0.152 nM
C-terminal VD IL-17 Neutralization Assay EC50 (Recombinant Human IL-17 [2]): 0.34 nM
Kd (Recombinant Human IL-17 [5]): 0.53 nM
koff (Recombinant Human IL-17 [5]): 9e-05 s⁻¹
kon (Recombinant Human IL-17 [5]): 170000 M⁻¹ s⁻¹
Kd (Recombinant Human IL-1β [6]): 0.083 nM
koff (Recombinant Human IL-1β [6]): 0.00059 s⁻¹
kon (Recombinant Human IL-1β [6]): 7.1e+06 M⁻¹ s⁻¹
B5: DVD1647 (bispecific antibody, human IgG1, kappa)
heavy: not shown
light: B3 light with D141N, P156S, T168I, G197A, T204S, S206T, Y209H, P213Q
notes: DVD-Ig: outer AB272, inner AB275; V1/V2 vectors: wild type hIgG1, kappa
